According to patent US20260029420A1, “ANTI-CB2 ANTIBODIES AND THEIR USE IN A FLOW CYTOMETRY ASSAY TO MEASURE CELL SURFACE CB2 EXPRESSION” (Hoffmann-La Roche Inc., priority 2022, published 2026):

How the values were obtained:
CHODukx negative = test: Immunofluorescence on methanol-fixed cells, negative control; assay type: binding; set-up: key to immunofluorescence signal intensity: “−” no fluorescence detected; “+”-“++++” intensity of fluorescent signal; “+”-“++++” intensity of fluorescent signal; “+”-“++++” intensity of fluorescent signal; “+”-“++++” intensity of fluorescent signal
Description: (§1) The positive clones (Table 1) were further characterized by immunofluorescence (IF; Table 2), Western Blot (Table 3, 1) and Immune precipitation (Table 4, 2) on full length hCB2, hCB1, mCB2 stable-transfected CHO-cell lines in addition to the 2 pANITA constructs.
(§2) For IF analysis, methanol-fixed cells were incubated for 20 min in a humid chamber at 37° C. with the respective hCB2 and mCB2 clones. After rinsing twice and washing for 15 min in PBS, 125 μg/ml FITC-conjugated […] anti-mouse IgG antibodies (RAM/IgG (H+L)/FITC, Nordic
(§3) Immunological Laboratories) diluted in PBS was added and incubated for 20 min in a humid chamber at 37° C. Cells were rinsed twice and washed for 15 min in PBS, mounted with mounting solution (50% PBS 50% glycerol) and covered with a coverslip. Staining was assessed by fluorescence microscopy on a Leica CTR500 fluorescence microscope and a Leica DFC300 FX digital camera.

[1] = Storage stability of antibody working dilution; assay type: physicochemical; details: working dilution (5 μg/sample), on ice
Description: FIG. 12: Single dose in vivo study monitoring the pharmacodynomic effect of RG7774 on CB2 expression on B-cells in Cynomolgus upon oral dosing. Three healthy cynomolgus monkeys were dosed with 100 mg/kg of the CB2 agonist RG7774. The blood draw at different time points was followed by the incubation with the anti-human CB2 antibody 1/622. The expression of CB2 on the surface of B-cells was analyzed using a lineage marker mix specific for B-cells and T-cells. The B/T-cell CB2 MFI ratio was calculated and normalized to baseline. 0 μM served as 100% baseline receptor expression. […] Due to a storage effect of the antibody working dilution (5 μg/sample) of the anti-human CB2 Ab 1/622 the 4 and 7 hours' time point have been excluded. The working dilution of this antibody is only stable for 2 hours on ice.

pANITA3.1 hCB2 (JB175) [2] = molecular target: T1, pANITA3.1 hCB2 (JB175) (Homo sapiens, UniProt P34972); test: Immunoprecipitation from whole cell lysates; assay type: binding; set-up: key to Immunoprecipitation signal intensity: “−” no signal; “+”-“++++” signal intensity; “+”-“++++” signal intensity; “+”-“++++” signal intensity; “+”-“++++” signal intensity
T1 construct: expressed in transfected cells; host or cells: HEK293
T1 sequence (P34972 with tags, fused parts or gaps): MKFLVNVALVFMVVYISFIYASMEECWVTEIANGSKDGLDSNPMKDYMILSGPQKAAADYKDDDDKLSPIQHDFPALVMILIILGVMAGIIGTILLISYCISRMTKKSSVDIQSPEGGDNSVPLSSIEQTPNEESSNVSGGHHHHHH
Description: as §1
(§4) For immunoprecipitation (IP), whole cell lysates were incubated with the respective antibodies. IP was performed according to established protocols and subsequent western blot as described herein above.

pANITA3.1 mCB2 (JB176) [3] = molecular target: T2, pANITA3.1 mCB2 (JB176) (Mus musculus, UniProt P47936); test: Immunoprecipitation from whole cell lysates; assay type: binding; set-up: key to Immunoprecipitation signal intensity: “−” no signal; “+”-“+++++” signal intensity; “+”-“+++++” signal intensity; “+”-“+++++” signal intensity; “+”-“+++++” signal intensity; “+”-“+++++” signal intensity
T2 construct: expressed in transfected cells; host or cells: HEK293
T2 sequence (P47936 with tags, fused parts or gaps): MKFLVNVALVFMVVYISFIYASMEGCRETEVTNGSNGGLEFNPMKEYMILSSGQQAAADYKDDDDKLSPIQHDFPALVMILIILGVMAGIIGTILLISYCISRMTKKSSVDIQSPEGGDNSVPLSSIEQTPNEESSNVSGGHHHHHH
Description: as §1, §4

CHODukx CRE hCB1 Cl.20 = molecular target: T3, CHODukx CRE hCB1 Cl.20 (Homo sapiens, UniProt P21554); test: Western blot of cell lysates; assay type: binding; set-up: key to Western Blot signal intensity: “−” no signal; “+”-“+++++” signal intensity; “+”-“+++++” signal intensity; “+”-“+++++” signal intensity; “+”-“+++++” signal intensity; “+”-“+++++” signal intensity
T3 construct: expressed in transfected cells
T3 sequence (P21554 whole entry): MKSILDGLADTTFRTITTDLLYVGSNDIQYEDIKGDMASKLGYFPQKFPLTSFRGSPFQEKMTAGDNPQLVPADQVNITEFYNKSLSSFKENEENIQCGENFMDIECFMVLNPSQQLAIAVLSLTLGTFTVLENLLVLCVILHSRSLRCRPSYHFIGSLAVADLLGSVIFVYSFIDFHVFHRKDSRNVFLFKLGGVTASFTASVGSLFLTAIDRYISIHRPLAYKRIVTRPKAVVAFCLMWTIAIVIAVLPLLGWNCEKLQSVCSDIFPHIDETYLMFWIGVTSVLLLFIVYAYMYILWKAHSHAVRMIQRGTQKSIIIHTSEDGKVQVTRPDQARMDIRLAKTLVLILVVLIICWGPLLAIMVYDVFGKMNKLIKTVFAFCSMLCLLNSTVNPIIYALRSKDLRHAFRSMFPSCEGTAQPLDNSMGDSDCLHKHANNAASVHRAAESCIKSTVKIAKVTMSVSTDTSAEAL
Description: as §1
(§5) For Western blot analysis, cells were collected using enzyme free dissociation buffer (Cell dissociation buffer enzyme-free Hanks'-based, Gibco), and washed two times with PBS. To prepare cell lysate, 10^6 cells were lysed with 0.1 ml of lysis buffer (1% NP40, 10% glycerol, 2 mM EDTA, 137 mM NaCl, 20 mM TrisHCl, pH8, Protease Inhibitors) for 10 min on ice. The lysate was cleared by centrifugation at 20′000 g for 5 min. For SDS-PAGE cell lysate was resolved on precast 4-12% gradient gels (NuPAGE® Novex 4-12% Bis-Tris Gel, Invitrogen) with MES running buffer according to the manufacturer's directions. The separation of proteins was visualized by Colloidal Blue staining. The proteins were electrophoretically transferred to nitrocellulose membrane using a dry-blotting system (iBlot, Invitrogen). After blocking the membrane for 16 h in blocking buffer (5% Milk in PBS) at 4° C., specific proteins were detected with appropriate dilutions of mAbs in blocking buffer for 1 h at approximately 20° C. […]

pANITA3.1 hCB2 (JB175) [4] = molecular target: T1, pANITA3.1 hCB2 (JB175); test: Immunofluorescence on methanol-fixed transfected cells; assay type: binding; set-up: key: “−” no fluorescence detected; “+”-“++++” intensity of fluorescent signal; “+”-“++++” intensity of fluorescent signal; “+”-“++++” intensity of fluorescent signal; “+”-“++++” intensity of fluorescent signal; details: pANITA3.1 hCB2 (JB175) cells
Description: as §1, §2, §3

pANITA3.1 mCB2 (JB176) [5] = molecular target: T2, pANITA3.1 mCB2 (JB176); test: as above; assay type: binding; set-up: key: “−” no fluorescence detected; “+”-“++++” intensity of fluorescent signal; “+”-“++++” intensity of fluorescent signal; “+”-“++++” intensity of fluorescent signal; “+”-“++++” intensity of fluorescent signal; details: pANITA3.1 mCB2 (JB176) cells
Description: as §1, §2, §3

[6] = tested on: pANITA3.1 ratGIPR (DB388); test: Western blot of cell lysates; assay type: binding, rat; set-up: key to Western Blot signal intensity: “−” no signal; “+”-“+++++” signal intensity; “+”-“+++++” signal intensity; “+”-“+++++” signal intensity; “+”-“+++++” signal intensity; “+”-“+++++” signal intensity
Description: as §1, §5

B1: hCB2-1/622: murine IgG3 monoclonal anti-human CB2 antibody, VH SEQ ID NO: 1, VL SEQ ID NO: 2, HC SEQ ID NO: 3, LC SEQ ID NO: 4 (antibody)
heavy: EVQLQQSGPELVKPGASVKISCKTSGYTFTEYTMHWVRQSHGKSLEWIGGIDRYNGDTYYNQKFKDKATLTVDRSSSTAYMELRSLTSEDSAVYFCARNGAMDYWGQGISVTVSSATTTAPSVYPLVPGCSDTSGSSVTLGCLVKGYFPEPVTVKWNYGALSSGVRTVSSVLQSGFYSLSSLVTVPSSTWPSQTVICNVAHPASKTELIKRIEPRIPKPSTPPGSSCPPGNILGGPSVFIFPPKPKDALMISLTPKVTCVVVDVSEDDPDVHVSWFVDNKEVHTAWTQPREAQYNSTFRVVSALPIQHQDWMRGKEFKCKVNNKALPAPIERTISKPKGRAQTPQVYTIPPPREQMSKKKVSLTCLVTNFFSEAISVEWERNGELEQDYKNTPPILDSDGTYFLYSKLTVDTDSWLQGEIFTCSVVHEALHNHHTQKNLSRSPGK
light: DVVMTQTPLSLPVSLGDQASISCRSSQSLVHSNGNTYLHWFLQKPGQSPKLLIYKVSIRFSGVPDRFSGSGSGTDFTLKISRVEAEDLGVYFCSQSTHVPPLTFGAGTKLELKRADAAPTVSIFPPSSEQLTSGGASVVCFLNNFYPKDINVKWKIDGSERQNGVLNSWTDQDSKDSTYSMSSTLTLTKDEYERHNSYTCEATHKTSTSPIVKSFNRNEC
Question: With B1 as the molecule, how does the immunofluorescence signal intensity (CHODukx negative; CHODukx negative cells) read?
Answer: −

Question: And the “immunofluorescence staining” value (CHODukx negative; negative control cells)?
Answer: no staining

Question: What about the “stability of antibody working dilution” value [1] of the same molecule?
Answer: 2 h

Question: And the “immunoprecipitation binding” value (pANITA3.1 hCB2 (JB175) [2]; hCB2)?
Answer: specifically binds

Question: And the Immunoprecipitation signal intensity (pANITA3.1 hCB2 (JB175) [2]; pANITA3.1 hCB2 (JB175) lysate)?
Answer: ++++

Question: What about the “immunoprecipitation cross reactivity” value (pANITA3.1 mCB2 (JB176) [3]; mCB2) of the same molecule?
Answer: no cross reactivity

Question: What about the Immunoprecipitation signal intensity (pANITA3.1 mCB2 (JB176) [3]; pANITA3.1 mCB2 (JB176) lysate) of the same molecule?
Answer: −

Question: And the “Western Blot signal intensity” value (CHODukx CRE hCB1 Cl.20; CHODukx CRE hCB1 Cl.20 lysate)?
Answer: −

Question: And the “Western blot detection” value (CHODukx CRE hCB1 Cl.20; hCB1)?
Answer: no mCB2, hCB1 or rat GIPR was detected

Question: And the immunofluorescence signal intensity (pANITA3.1 hCB2 (JB175) [4])?
Answer: ++++

Question: What about the immunofluorescence signal intensity (pANITA3.1 mCB2 (JB176) [5]) of the same molecule?
Answer: −

Question: And the “Western Blot signal intensity” value ([6]; pANITA3.1 ratGIPR (DB388) lysate)?
Answer: −

Question: And the “Western blot detection” value ([6]; rat GIPR)?
Answer: no mCB2, hCB1 or rat GIPR was detected
